Assay results published in patent publication US20140286983A1.

How the values were obtained:
[1] = biological target: DENV-1 VLP mutant E311K (Dengue virus serotype 1 strain (56)BC94/95; C-terminal 20% Japanese encephalitis virus)
[2] = biological target: DENV-1 VLP mutant G106R (Dengue virus serotype 1 strain (56)BC94/95; C-terminal 20% Japanese encephalitis virus)
[3] = biological target: DENV-1 VLP mutant G106RL107D (Dengue virus serotype 1 strain (56)BC94/95; C-terminal 20% Japanese encephalitis virus)
[4] = biological target: DENV-1 VLP mutant G106RL107DK310DE311KP364Q (pVD1-CRR VLP antigen) (Dengue virus serotype 1 strain (56)BC94/95; C-terminal 20% Japanese encephalitis virus)
[5] = biological target: DENV-1 VLP mutant K310D (Dengue virus serotype 1 strain (56)BC94/95; C-terminal 20% Japanese encephalitis virus)
[6] = biological target: DENV-1 VLP mutant K310DE311KP364Q (Dengue virus serotype 1 strain (56)BC94/95; C-terminal 20% Japanese encephalitis virus)
[7] = biological target: DENV-1 VLP mutant L107D (Dengue virus serotype 1 strain (56)BC94/95; C-terminal 20% Japanese encephalitis virus)
[8] = biological target: DENV-1 VLP mutant P364Q (Dengue virus serotype 1 strain (56)BC94/95; C-terminal 20% Japanese encephalitis virus)
[9] = biological target: DENV-1 virus (strain 56BC94/95) (Dengue virus serotype 1 strain 56BC94/95); assay: cell-based or functional assay
[10] = biological target: DENV-2 virus (strain 16681) (Dengue virus serotype 2 strain 16681) (UniProt P29990); assay: cell-based or functional assay
[11] = biological target: DENV-3 virus (strain 116RC1396) (Dengue virus serotype 3 strain 116RC1396); assay: cell-based or functional assay
[12] = biological target: DENV-4 virus (strain 130) (Dengue virus serotype 4 strain 130); assay: cell-based or functional assay

MAb 6B6C-1 (antibody)
percent of remaining reactivity compared to WT [1]: 100% | percent of remaining reactivity compared to WT [2]: 12.5% | percent of remaining reactivity compared to WT [3]: 0.8% | percent of remaining reactivity compared to WT [4]: 3% | percent of remaining reactivity compared to WT [5]: 100% | percent of remaining reactivity compared to WT [6]: 50% | percent of remaining reactivity compared to WT [7]: 50% | percent of remaining reactivity compared to WT [8]: 100%

MAb 4G2 (antibody)
percent of remaining reactivity compared to WT [1]: 100% | percent of remaining reactivity compared to WT [2]: < 0.1% | percent of remaining reactivity compared to WT [3]: < 0.1% | percent of remaining reactivity compared to WT [4]: < 0.1% | percent of remaining reactivity compared to WT [5]: < 0.1% | percent of remaining reactivity compared to WT [6]: 100% | percent of remaining reactivity compared to WT [7]: < 0.1% | percent of remaining reactivity compared to WT [8]: < 0.1%

MAb 1A1D-2 (antibody)
percent of remaining reactivity compared to WT [1]: 50% | percent of remaining reactivity compared to WT [2]: 25% | percent of remaining reactivity compared to WT [3]: 100% | percent of remaining reactivity compared to WT [4]: < 0.1% | percent of remaining reactivity compared to WT [5]: 1.5% | percent of remaining reactivity compared to WT [6]: < 0.8% | percent of remaining reactivity compared to WT [7]: 100% | percent of remaining reactivity compared to WT [8]: 100% | Nt50 (µg/mL), FRµNT [9]: 1.68 µg/mL | Nt50 (µg/mL), FRµNT [10]: 0.46 µg/mL | Nt50 (µg/mL), FRµNT [11]: 1.26 µg/mL | Nt50 (µg/mL), FRµNT [12]: > 20 µg/mL

MAb 3H5 (antibody)
Nt50 (µg/mL), FRµNT [9]: > 20 µg/mL | Nt50 (µg/mL), FRµNT [10]: 0.15 µg/mL
